{"source": "patent US20140011207", "about": "“PSA BINDING APTAMER AND METHOD FOR DIAGNOSIS OF PROSTATE CANCER” (National University Corporation Tokyo University of …, published 2014)", "key": {"[1]": {"target": "T1, Prostate-specific antigen (PSA, KLK3) (Homo sapiens, UniProt P07288 P07288:25-261)", "T1 sequence (P07288 25-261, one chain of several)": "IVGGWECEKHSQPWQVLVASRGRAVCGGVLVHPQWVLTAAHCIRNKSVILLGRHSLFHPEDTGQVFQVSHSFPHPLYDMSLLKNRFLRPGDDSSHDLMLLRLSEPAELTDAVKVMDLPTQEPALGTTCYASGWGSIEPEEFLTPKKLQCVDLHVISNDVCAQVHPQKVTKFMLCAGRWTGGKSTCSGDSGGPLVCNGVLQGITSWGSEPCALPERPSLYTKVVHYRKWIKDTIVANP", "test": "ELONA", "conditions": "tags: purified from human semen; Sigma-Aldrich and Scipac; label: 5'-FITC", "method": "(§1) 100 μL amounts of PSA in PBS buffer (pH 7.4), at final concentration of 5 μg/mL, were added to a 96-well polystyrene plate. After 2 h incubation with gentle shaking at 37° C., the supernatant was removed and each well was washed with TBST buffer. Each well was filled with 100 μl of five-fold-diluted blocking reagent N102 and incubated with gentle shaking for 1 h at room temperature, and then washed three times. FITC-labeled aptamer was heat treated in TBS buffer as described above for folding. To each well 100 μL amounts of the FITC-labeled aptamer in TBST buffer (5 μM) were added and incubated for 1 h at room temperature. After washing three times, HRP-conjugated anti-FITC antibody was added to each well and incubated with gentle shaking for 1 h at room temperature. Each well was washed five times and BM chemiluminescence HRP substrate was added, then the HRP activity was measured by a multi label plate counter: Wallac 1420 ARVO MX (Perkin Elmer).\nIn order to carry out a post-SELEX screening of aptamers using GA with candidates, the five sequences pre-selected through SELEX were used as “parents” to produce a set of 20 oligonucleotide sequences using GA. These oligonucleotides were synthesized and the PSA-binding ability was evaluated by plate assay. The PSA-binding ability was measured by detection chemiluminescence from HRP-conjugated anti-FITC antibody that represented the binding of oligonucleotides against PSA immobilized on a well of polystyrene plate (n=2). The signal intensity was normalized with that of the top oligonucleotide in the 1st-generation. Then, the oligonucleotides were ranked according to PSA-binding ability, and top four ranked sequences were chosen to produce a next set of oligonucleotide sequences. The cycle of oligonucleotide synthesis, plate assay and evolution of the oligonucleotide sequences using GA was repeated three times, with one cycle corresponding to one generation when we assume this process to be the in silico evolution of the PSA-binding aptamer. After one cycle of GA operations, four 2nd-generation sequences, SEQ ID: Nos. 8 to 11, were obtained."}, "[2]": {"target": "T1, Prostate-specific antigen (PSA, KLK3)", "test": "ELONA; rank 2 of 1st generation", "conditions": "tags: purified from human semen; Sigma-Aldrich and Scipac; label: 5'-FITC", "method": "as §1, with “After washing three times, HRP-conjugated anti-FITC antibody was added to each well and incubated with gentle shaking for 1 h at room temperature.” left out\n(§2) In order to carry out a post-SELEX screening of aptamers using GA with candidates, the five sequences pre-selected through SELEX were used as “parents” to produce a set of 20 oligonucleotide sequences using GA. These oligonucleotides were synthesized and the PSA-binding ability was evaluated by plate assay. The PSA-binding ability was measured by detection chemiluminescence from HRP-conjugated anti-FITC antibody that represented the binding of oligonucleotides against PSA immobilized on a well of polystyrene plate (n=2). […]"}, "[3]": {"target": "T1, Prostate-specific antigen (PSA, KLK3)", "test": "ELONA; rank 5 of 1st generation", "conditions": "tags: purified from human semen; Sigma-Aldrich and Scipac; label: 5'-FITC", "method": "as §1, with “After washing three times, HRP-conjugated anti-FITC antibody was added to each well and incubated with gentle shaking for 1 h at room temperature.” left out\nas §2"}, "[4]": {"target": "T1, Prostate-specific antigen (PSA, KLK3)", "test": "ELONA; rank 3 of 1st generation", "conditions": "tags: purified from human semen; Sigma-Aldrich and Scipac; label: 5'-FITC", "method": "as §1, with “After washing three times, HRP-conjugated anti-FITC antibody was added to each well and incubated with gentle shaking for 1 h at room temperature.” left out\nas §2"}, "[5]": {"target": "T1, Prostate-specific antigen (PSA, KLK3)", "test": "ELONA; rank 4 of 1st generation", "conditions": "tags: purified from human semen; Sigma-Aldrich and Scipac; label: 5'-FITC", "method": "as §1, with “After washing three times, HRP-conjugated anti-FITC antibody was added to each well and incubated with gentle shaking for 1 h at room temperature.” left out\nas §2"}, "[6]": {"target": "T1, Prostate-specific antigen (PSA, KLK3)", "test": "ELONA; PSA immobilized on polystyrene plate; TBST with 5 mM KCl, 5 mM MgCl2, pH 7.4, room temp", "conditions": "tags: purified from human semen; Sigma-Aldrich and Scipac; label: 5'-FITC; predicted stem-loop", "method": "as §1, with “After washing three times, HRP-conjugated anti-FITC antibody was added to each well and incubated with gentle shaking for 1 h at room temperature.” left out\nPlate assay for detection of PSA was performed as described above with the following modifications. […] After incubation with HRP-conjugated anti-FITC antibody, chemiluminescence from HRP was measured.\nPlate assay was performed to measure PSA concentrations with ΔPSap4#5 selected using GA as the top oligonucleotide of the 4th-generation. […] Then, the PSA concentration was measured by detecting chemiluminescence from HRP-conjugated anti-FITC antibody that represented the binding of FITC-labeled ΔPSap4#5 against PSA immobilized on a well of polystyrene plate (n=2). […]"}, "[7]": {"target": "T1, Prostate-specific antigen (PSA, KLK3)", "test": "ELONA; rank 1 of 1st generation; 1st generation up to 10-fold higher than parents", "conditions": "tags: purified from human semen; Sigma-Aldrich and Scipac; label: 5'-FITC", "method": "as §1, with “After washing three times, HRP-conjugated anti-FITC antibody was added to each well and incubated with gentle shaking for 1 h at room temperature.” left out\nas §2"}, "[8]": {"target": "T1, Prostate-specific antigen (PSA, KLK3)", "test": "ELONA; rank 6 of 1st generation", "conditions": "tags: purified from human semen; Sigma-Aldrich and Scipac; label: 5'-FITC", "method": "as §1, with “After washing three times, HRP-conjugated anti-FITC antibody was added to each well and incubated with gentle shaking for 1 h at room temperature.” left out\nas §2"}, "[9]": {"target": "T1, Prostate-specific antigen (PSA, KLK3)", "test": "ELONA; rank 7 of 1st generation", "conditions": "tags: purified from human semen; Sigma-Aldrich and Scipac; label: 5'-FITC", "method": "as §1, with “After washing three times, HRP-conjugated anti-FITC antibody was added to each well and incubated with gentle shaking for 1 h at room temperature.” left out\nas §2"}}}
{"binder": "TTTTTGCCTACTGATTTCCTTTTTGAGCCTTT (ssDNA)", "note": "[ΔPSap2#01]", "values": [{"measurement": "binding signal", "setting": "[1]", "value": "1170 CPS (normalized HRP chemiluminescence)"}]}
{"binder": "TTTTTACTTAAGGATTTCCTTTTTTAGCCTTT (ssDNA)", "note": "[ΔPSap1#3]", "values": [{"measurement": "binding result", "setting": "[2]", "value": "binds"}]}
{"binder": "TTTTTAATATCACCCTTGTTTACTGTCCCTTT (ssDNA)", "note": "[ΔPSap1#12]", "values": [{"measurement": "binding result", "setting": "[3]", "value": "binds"}]}
{"binder": "TTTTTAATGTCAACGTTGTTTACTGTCCCTTT (ssDNA)", "note": "[ΔPSap2#18]", "values": [{"measurement": "binding signal", "setting": "[1]", "value": "1490 CPS (normalized HRP chemiluminescence)"}]}
{"binder": "TTTTTACTGTGAACTCGCCATCAAATATCTTT (ssDNA)", "note": "[ΔPSap2#16]", "values": [{"measurement": "binding signal", "setting": "[1]", "value": "1480 CPS (normalized HRP chemiluminescence)"}]}
{"binder": "TTTTTAATGTCAACTCGCCATCAAATATCTTT (ssDNA)", "note": "[ΔPSap1#16]", "values": [{"measurement": "binding result", "setting": "[4]", "value": "binds"}]}
{"binder": "TTTTTCCTCACCGGGTAACTTCGTGGCCCTTT (ssDNA)", "note": "[ΔPSap1#5]", "values": [{"measurement": "binding result", "setting": "[5]", "value": "binds"}]}
{"binder": "TTTTTAATTAAGGATTTCCCGGTTGTATCTTT (ssDNA)", "note": "[ΔPSap2#02]", "values": [{"measurement": "binding signal", "setting": "[1]", "value": "1550 CPS (normalized HRP chemiluminescence)"}]}
{"binder": "TTTTTAATTAAAGCTCGCCATCAAATAGCTTT (ssDNA)", "note": "[ΔPSap4#5]", "values": [{"measurement": "Kd", "setting": "[6]", "value": 54, "unit": "nM"}]}
{"binder": "TTTTTAATTCAGGCTCGCCATCAAATAGCTTT (ssDNA)", "note": "[ΔPSap4#1]", "values": [{"measurement": "binding signal", "setting": "[1]", "value": "1800 CPS (normalized HRP chemiluminescence)"}]}
{"binder": "TTTTTAATTAAGGCTCGCCATCAAAGAGCTTT (ssDNA)", "note": "[ΔPSap4#14]", "values": [{"measurement": "binding signal", "setting": "[1]", "value": "2510 CPS (normalized HRP chemiluminescence)"}]}
{"binder": "TTTTTAATTAAGGCTCGCCATCAAATAACTTT (ssDNA)", "note": "[ΔPSap4#11]", "values": [{"measurement": "binding signal", "setting": "[1]", "value": "2150 CPS (normalized HRP chemiluminescence)"}]}
{"binder": "TTTTTTATTAAGGCTCGCCATCAAATAGCTTT (ssDNA)", "note": "[ΔPSap4#10]", "values": [{"measurement": "binding signal", "setting": "[1]", "value": "3300 CPS (normalized HRP chemiluminescence)"}]}
{"binder": "TTTTTAATTAAGGCTCGCCATCAGATAGCTTT (ssDNA)", "note": "[ΔPSap4#7]", "values": [{"measurement": "binding signal", "setting": "[1]", "value": "3260 CPS (normalized HRP chemiluminescence)"}]}
{"binder": "TTTTTAATTAAGGCTCGCCATCAAAAAGCTTT (ssDNA)", "note": "[ΔPSap4#19]", "values": [{"measurement": "binding signal", "setting": "[1]", "value": "1220 CPS (normalized HRP chemiluminescence)"}]}
{"binder": "TTTTTAATATCAACTTGCCATAAAGGGCCTTT (ssDNA)", "note": "[ΔPSap1#13]", "values": [{"measurement": "binding result", "setting": "[7]", "value": "binds"}]}
{"binder": "TTTTTGCCTAATGATTTCCCGGTTGTCTCTTT (ssDNA)", "note": "[ΔPSap1#15]", "values": [{"measurement": "binding result", "setting": "[8]", "value": "binds"}]}
{"binder": "TTTTTACTTAATGATTTCACCGGTGGCCCTTT (ssDNA)", "note": "[ΔPSap1#19]", "values": [{"measurement": "binding result", "setting": "[9]", "value": "binds"}]}
